# Values joined by “and” are separate entries in the source; they are usually repeats but may differ in a detail not shown here. Equal values may be shown once.
# B1: His‐tagged Protein D (non‐lipidated, N‐terminal signal sequence removed) (natural protein)
# chain: CSSHSSNMANTQMKSDKIIIAHRGASGYLPEHTLESKALAFAQHSDYLEQDLAMTKDGRLVVIHDHFLDGLTDVAKKFPYRHRKDGRYYVIDFTLKEIQSLEMTENFETKDGKQAQVYPNRFPLWKSHFRIHTFEDEIEFIQGLEKSTGKKVGIYPEIKAPWFHHQNGKDIATETLKVLKKYGYDKKTDMVYLQTFDFNELKRIKTELLPQMGMDLKLVQLIAYTDWKETQEKDPKGYWVNYNYDWMFKPGAMAEVVKYADGVGPGWYMLVNKEESKPDNIVYTPLVKELAQYNVEVHPYTVRKDALPEFFTDVNQMYDALLNKSGATGVFTDFPDTGVEFLKGIK
# notes: Gene bought from GenScript, in pET21a; also called PD; His‐tagged PD; source: E. coli BL‐21*, IPTG induced; not shown: His6, N-terminal, kept
# B2: His‐tagged outer membrane protein 26 (OMP26) (natural protein)
# chain: EEKIAFINAGYIFQHHPDRQAVADKLDAEFKPVAEKLAASKKEVDDKIAAARKKVEAKVAALEKDAPRLRQADIQKRQQEINKLGAAEDAELQKLMQEQDKKVQEFQAQNEKRQAEERGKLLDSIQTATNNLAKAKGYTYVLDANSIVFAVEGKDITEEVLKSIPASEKAQEKK
# notes: OMP26, 26-kDa outer membrane protein of Haemophilus influenzae, homolog of E. coli Skp; Gene bought from GenScript; Predominantly trimers by native MS and SEC, with hexamers in low abundance; also called His‐tagged OMP26; source: E. coli BL‐21*, IPTG induced; not shown: His6, N-terminal, kept
# Molecular target: the molecule itself
# Test: native MS; nano-electrospray native MS with ion mobility (Waters Synapt G2); His-tagged proteins in 200 mM ammonium acetate pH 6.8, 5 μM; PD alone, OMP26 alone, 1:1 mixture
row,Protein,stoichiometry N
1,B1,2 and 4
2,B2,3 and 6

# From article PMC9714371, “Haemophilus influenzae Protein D antibody suppression in a multi‐component vaccine formulation” (FEBS Open Bio, 2022)
